Reference: the nanobody polyreactivity screen of Harvey et al. (2022)

Assay: yeast display, Sf9 membrane polyspecificity reagent, FACS + sequencing; frameworks hold sequencing errors
Summary of the method: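 After 36–48 hours of galactose induction, yeast (Saccharomyces cerevisiae BJ5465) displaying a synthetic nanobody library were stained at 4 °C for 1 hour with 10% biotinylated, detergent-solubilized Sf9 membrane reagent. Streptavidin microbeads enriched the stained cells before FACS sorting into low and high (top ~1%) gates on anti-HA and streptavidin fluorescence. Each clone's polyreactivity label reflects its gate of origin.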

Row | Sequence | polyreactivity (PSR sort gate)
1 | QVQRVESGGGLVQAGGSLRLSCAASGGTFPQYAMGWDRQSHGKETEFVADITSRGGTTYYADSVKGRFTISRDNAKNTVYLQMNSLKPEDTAVNYCAADNPADWWGLDYWGQGTQVTVSS | low polyreactivity
2 | QVQLVESGGGLVQAGGSLRLSCAASGSTFYPYAMGWYRPAPGKERELVASITLRGSSTYYADSVKGRFTISRDNAKNTVYLQMNSLKPEDTAVYYCAKEGYLYLWRYDYWGQGTQVTVSS | high polyreactivity
3 | QVQLVESGGGLVQAGGSLRLSCAASVRIFGYARGWYRQAPGKERELVAAITSSGGRTYYADSVKGLFTISRDNAKNTVYLQMNSLKPEDTAVYYCAKDASVSYSTNFRYYYWGQGTQVTVSS | high polyreactivity
4 | QVQLVESGGGLVQAGGSLRLSCPASGFIFWYNVMGWSRQAPGKERELVAAISGRGGSTYYADSVKGRFTISRDNAKNTVYLQMNSLKPEDTAVYYCNTFSYRSGAYGYWGQGTQVTVSS | high polyreactivity
5 | QVQLVESGGGLVQAGGSLRLSCAASGGIFTLYVRGWYRQAPGKERELVAAISRTGGSTYYADSVKGRFTISRDNAKNTVYLQMNSLKPEDTAVYFCAALYRGGTRYGGYDYWGQGTQVTVSS | low polyreactivity
6 | QVQLVESGGGLVQAGGSLRLSCAASGSIFQSNAMGWDRQAPGKERELVAAISSSGVRTYYADSVKGRFTISRDNAKNTVYLQMNSLKPEDTAVYYCATGWYYAGGPTYEYYYWGQGTQVTVSS | low polyreactivity
7 | QVQLVESGGGLVQAGGSLRLSCAASGFTFTPYAMGWYRQAPGKERELVAAITWRGGTYYADSVKGRFTISRDNAKNTVYLQMNSLKPEDTAVYYCAARVWRLYPSTYDYWGQGTQVTVSS | high polyreactivity
8 | QVQLVESGGGLVQAGGSLRLSCAASGRTFGGYVMGWYIQAPGKERELVASISSSAGSTYYADSVKGRFTISRDNAKNTVYLQMNSLKTEDTAVYYCAKRSYNPYYRYYRYPYGYWGQGTQVTVSS | high polyreactivity
9 | QVQLVESGGGLVQAGGSLRLSCAASGSIFQVYSMGWYRQAPGKEREFVAAISFSGGGTYYADSVKGRFTISRDNAKNTVYLQMNSMKPEDTAVYYCAADVSGWEYDYWGQGTQVTVSS | low polyreactivity
10 | QVQLLESGGGLVQAGGSLRLSCAASGNTFYPNAMGWYRPAPGKETELVAAISSSGGSTYYADSVKGRFTISRDNAKNTVYLQMKSLNPEDTAVYYCASEFDYPLSGEYYYWGKGTQVTVSS | high polyreactivity
11 | QVQLVESGGGLVQAGGSLRLSCAASGISFYVNAMGSYRQAPGKERELVVAITQSVDITSYADSVKGRFTISRDNEKNTVYLQMNSLKPEVTAVYYCATRVIQDDNARDYWGQGTQVTVSS | low polyreactivity
12 | QVQLVESGGGLVQAGGSLRFSCAASGGTFGYNAMGWYRQAPGKDRELVARISWRGASTYYADSVKGRFTLSRDNAKNTVYLQMNSLKPEDTAVYYCAAYSFNYQPAYAYRGEDYWGQGTQVTVSS | low polyreactivity
13 | QVQLVESGGGLVQARGTLRLSCAASGFTVFSYAMGWYRQAPGKESELVASISGSSSTYYADSVKGRFTISRDNAKNTVSVQMNSLTPDDTAVYYCAVDYHQAWPSGDYWFEYDYWGQGTQVTVSS | low polyreactivity
14 | QVQLVESGGGLVQAGGSLRLSCAASGSIFKPYAMGWYRQAPGKERELVAVISWRGGSTYYADSVKGRFTISRDYAKNTVYFQMNSLKPEDTAVYYCAARRYRYFDGTVPLDYWGQGTQVSVSS | high polyreactivity
15 | QVQLVESGGGLVQAGGSLRLSCAASGSTLTRNAMGWYRQAPGKERELVAAITTSGGRTYYADSVKGRFTISRDNAKNTVYLQMNSLKPEDTAVYYCAARQRSEYVSGSLFYYWGQGTQVTVSS | high polyreactivity
16 | QVQLVESGGGLVQAGGSLRLSCAASGNIFGYYAMGWYRQAPGKERELVAAITTTGGSTYYADSVKGRFTISRDNAKNTVYLQMNSLKPEDTAVYYCAAETGYWYYYWGQGTLVTVSS | high polyreactivity
17 | QVQLVESGGGLVQAGGCLRLSCAASGSIFWGYAMGWYRPAPGKERELVAAITDSGGRTYYADSVKGRFTISRDNAKNTVYVQMNSQKPEDTAVYYCAADYYSQYYYYAVPDRDYWGQGTQVTVSS | low polyreactivity
18 | QVQLVESGGGLVQAGGSLRLSCAASGSIFRTYTMGWYRQAPGKERELVAAITRSGGRTFYADSVKGRFTISRDTAKNTVYLQMHSLKPEDTAVYYCAAKRTGDYDWGQGTQVTVSS | high polyreactivity
19 | QVLLQESGGGLVQAGGSLRMSCAASGNIFSAGGMGWYRQAPVNERELVAGIGTGTSTNYADSVKGRFTISRDNAKNTVYLQMNSLKPEDTAVYYCAAAYYSGLSHWYWGQGTQVTVSS | low polyreactivity
20 | QVQLVESGGGLVQAGGSLRLSCAASGRIFRYYAMGWYRQAPGKERELVAAISSGVGNTYYADSVKGRFTISRDNAKNTVYVQMNSLKPEDTAVFYCKAKWRKFGTVRYDYWGQGTQVTVSS | high polyreactivity
21 | QVQLVESGGGLVQAGGSLRLSCAASGRTFKFYAMGWYRQAPGKERELVARITSNSGSTYYADSVKGRFTISRDNAKHTVYLQLNSLKPEETAVYYCNARYGYTYRTFRYDYWGQGSQVTVSS | high polyreactivity
22 | QVQLVESGGGLVQAGGSLRLSCAASGSIFTLYAMGWYRQAPGKERELVAAITRSGGSTYYADSVKGRFTISRDNAKNTVYLQMNSLKPEDTAVYYCAADKAPYSTEGDYWGQGTQVTVSS | high polyreactivity

Row | Sequence | polyreactivity (PSR sort gate)
23 | QVQLVESGGGLVQAGVSLRLSCAASGRTFEYNAMGWYRQAPGKERELVATIRYSGTSTYADSVKGRFTISRDNAKNTVYLQMNSLKPEDSAVYYFAKQVRYYGYKYNYWGLGTQVTVSS | high polyreactivity
24 | QVQLQESGGGLVQAGGSLRLSCAASGSISHYIFMGWYRQAPGKEREFVAGIGYGGTTNYADSVKGRFTISRDNAKNTVYLQMNSLKPEDTAMYYCAAREATEFYLYYWGQGTQVTVSS | low polyreactivity
25 | QVQLVESGGGLVQAGGSLRLSCAASGGTFGYNAMGWYRQAPGKERELVAAIRNCGSTYYADSVKGRFTISRDNAKNTVYLQMNSLKQEDTAVYYCAAKVYRKLNYWVQGTQVTVSS | high polyreactivity
26 | QVQLVESGGGLVQAGGSLRLSCAASGRTFYKNTMGWYRQAPGKERELVATISQRRGSTYYADSVKGRFTISRDNAKNTVYLQMNSLKTEDTAVYYCNARKYTQSIHYDYWGQGTQVTVSS | high polyreactivity
27 | QVQLVESGGGLVQAGGSLRLSCAASGGLFTAYTMGWYRQAPGKERELVAVISSGGGRTYYADSVKGRFTISRDNAKNSVYLQMNSRKPEDTAVYYCNARVYVSANKYDYWGQGTQVTVSS | high polyreactivity
28 | QVQLVESGGGLVKAGGSLRLSCAASGRTFRYYDMGWYRQAPGKESELVAAIRTRGASTYYADSVKGRFTISRDNAKNTVYLQMNSLNPEDTAVYYCAKRAHFSSARHVYYIYDYWGQGTQVTVSS | low polyreactivity
29 | QVQLVESGGGLVQAGGSLRLSCAASGSIFTGYAMGWYRQAPGKERELVAAITYGSGRTYYADSVKGRFTISRDNAKNTLYLQMNSLKPEDTAVYYCAAKWSPYYYYIGYDYWGQGTQVTVSS | low polyreactivity
30 | QVQLVESGGGLVQAGGSLRLSCAASGFIFDWNTMGWYRQAPGQERELVAAITESSGSTYYADSVKGRFTISRDNAKNTVYLQMNSLKPEDTAVYYCAAESLISWRYDYWGQGTQVTVSS | low polyreactivity
31 | QVQLVESGGGLVQAGGSLRLSCAAYGGIFGRYAMGWYRQAPGKERELVAAISKRGGSTYYADSVKGRVTISRDNAKNTVYLQMNSLKPEETAVYYCNAAQSVELGYDYCGQGTQVTVSS | high polyreactivity
32 | QVQLVESGGGLVQAGGSLRLSCAASGRTFWKNTMGWSRQAPGKERELVAVISSGGVSTSYADSVKGRFTISRDNAKNTVYLQMNSLKPEDTAVYYCAADGYYIGPYDYWGQGTQVTVSS | low polyreactivity
33 | QVQLVESGGGLVQAGGILRLSCAASGITFPANAMGWYRQAPGKQRELVAAISSYGGSTYYADSVKGRFTISRDNAKNNVYFQMNSLKPEDTAVYYCAAYLSSLGRKYYYWGQGTQVTVSS | high polyreactivity
34 | QVQLVESGGGLVQAGGSLRLSCAASGFIFYTYAMGWYRQAPGKERELVAAISRGGRTNYADSVKGRFTISRDNAKNTVYLQMNSLKPEDTAVYYCASSYSHRYDYWGQGTQVTVSS | high polyreactivity
35 | QVQLVESGGGLVQAGGSLRLSCAASGFTFYRYAMGWYRQAPGKERELVAAITASGGSTYYADSVKGRFTISRDNAKNTVYLQMNSLKPEDTAVYYCAKGWVSYWRYKNEYWGQGTQVTVSS | high polyreactivity
36 | QVQLVESGGGLVQAGGSLRLSCAASGRTLEQYAMGWYRQAPGKERELVAAINKSGARTYYADSVKGRFTISRDNAKNSVYLQMNSQKPEDTAVYYCNTVGPSYLFDYWGQGTQVTVSS | high polyreactivity
37 | QVQLVESGGGLVQAGGSLRLSCAASGRTFWYYAMGWYRPAPGKERELVAGIRSGGSTYYADSVKGRFTISRDNAKNTVYLQMNSLKPEDTAVYYCATDYYYSNAKYDYWGQGTQVTVSS | high polyreactivity
38 | QVQLVESGGGIVQAGGSLRLSCAASGYIFDHYAMGWYRQAPGKERELVAAISRSAGSTYYADSVKGRFTISRDNAKNTVYLQMKSLKPEDTAVYYCNAVVAVRSWRKYEYWGQGTQVTVSS | high polyreactivity
39 | QVLLVESGGGLDHAGGSLPLSCAASGFTFGDNAMGWYRQAPGKERELVAAITSTGGSTNYADSVKGRFTISRDNAKYTVYLQMNSLKPDDTAVYYCAAEWLYRHDGGYPRPMDYWGQGTQVTVSS | low polyreactivity
40 | QVQLVESGAGLVQAGGSLRLSCAPSGRTFGYNAMGWYRQAPGKERELVATISSSTVSTSYADSVKGRFTISRDNAKNTVYLQMNSLKPEDTAVYYCNARSRVSPTERVPYDSWGHGTQVTVSS | low polyreactivity
41 | QVQLVESGGGLVQAGGSLRLSCADSGLIFKSYAMGWYRQARGKERELVAAISGNDGSTYYADSVKGRFTISRDNAKNTVYLQMNSLKPEDTAVYYCAADFSGPWYEYTFNYCGQGTQVTVSS | high polyreactivity
42 | QVQLVESGGGLVQAGGSLRLSCAASGRIFDRYAIGWYRHAPGKERELVAAITSGGDTNYADSVKGRFTISRDNAKITVYLPKNSLKPEDTAVYYCNTRLVLGGGRRHDYWGQGTQVTVSS | low polyreactivity
43 | QVQLVESGGGVVQAGGSLRLSCAASGSTFYSYAMGWYRPAPGKERELVAAISWDGGRTYYADSVKGRFTISRDNAQNTVYLQMNSMKPEDTAVYYCAARKGELWFPQGGYNYSGQGTQVTVSS | low polyreactivity
